This note sets out measurements from US20250298013A1.

The target in test [1] is Background (Staphylococcus aureus). Put plainly: SPRi, in-line blocking: IgG mix injected after thiolated PEG over a chip functionalised with thiolated protein A, (-) press load [Continued) C].
For test [2] the target is unchanged. As to the kind of experiment: SPRi, in-line blocking: IgG mix injected after thiolated PEG over a chip functionalised with thiolated protein A, (+) press load (300 Pa) [Continued) E].

Turning to IgG mix (antibody), the results for the IgG change (Background curve) (%Reflectivity) in test [1] and in test [2] were 12 and 2, respectively.
